Patent publication US7939292B2, “Modified heparinase III and methods of sequencing therewith” (Massachusetts Institute of Technology, priority 2000, dated 2011)

Key:
B16BL6 cells = experiment: Growth in mice of B16BL6 cells after heparinase removal of the HLGAG coat; assay type: in vivo; settings: HLGAG coat removed
Excerpt: There are two possible mechanisms by which heparinase may be acting on tumor cells. For instance, heparinase III treatment of cells may result in cells losing their unique surface HLGAG coat and this directly or indirectly may impinge on their ability to grow or metastasize. On the other hand heparinase III treatment of cells may also result in the generation of distinct HLGAG fragments, and these fragments could then directly or indirectly modulate tumor cell function. It was thought that heparinase III may function though either one of these mechanisms or through some combination of these mechanisms. To investigate the mechanisms of action further, we treated B16BL6 cells with either heparinases I or III, to remove the HLGAG coat on the tumor cell surface.
In further support of this conclusion ex vivo digestion of the HLGAG coat present on tumor cells with either heparinase, followed by centrifugation and resuspension in PBS to remove the enzyme and HLGAG fragments released from the cell surface, prior to in vivo injection results in the cells being functionally identical to controls. Thus the released tumor cell HLGAG fragments appear to play the key role in modulating tumor growth and metastasis.

FGFR1 = FGFR1 phosphorylation in B16BL6 tumor samples; design: species or system mice; settings: mouse, in vivo
Experimental: c. Effect of treatment of tumor with hep I and hep III in FGFR1 activation compared to PBS. Level of phosphorylated FGFR1 in tumor samples was assessed by standard immunoprecipitation followed by Westernblotting with phosphotyrosine specific antibody. Primary B16BL6 tumors were grown and treated as described earlier and at day 15 the tumor was harvested in cold modified RIPA buffer containing enzyme inhibitors and homogenized. The homogenates were past through 25-gauge needle 3 times and centrifuged. The supernatant was adjusted for protein concentration using the Bio-Rad protein assay kit (Bio-Rad). FGFR1 was immunoprecipitated with poly-clonal anti-FGFR1 antibody (Santa Cruz Biotechnology, Inc., CA). Samples were then pelleted, washed, and eluted from the beads by addition of sample buffer and boiled for 3 minutes (Kapila, Y. L., Wang, S. & Johnson, P. W. Mutations in the heparin binding domain of fibronectin in cooperation with the V region induce decreases in pp125(FAK) levels plus proteoglycan-mediated apoptosis via caspases. J Biol Chem 274, 30906-13 (1999).). After electrophoresis, the gel was transferred to nitrocellulose membrane by standard methods. The immunoblot was probed with phosphotyrosine specific antibody conjugated to HRP (RC20; Transduction Laboratories, Lexington, Ky.) and developed with SuperSignal West Pico Chemiluminescent substrate. […]

Akt = Akt activation in B16BL6 tumor; design: species or system mice; settings: mouse, in vivo
Experimental: f. Effect of heparinase treatment on Akt activation. The primary tumor was treated and processed as described above. Akt antibody and phospho-Akt antibody from New England Biolabs were used to probe the immunoblot.

Erk-1, 2 = Erk-1, 2 activation in FGF2 stimulated B16BL6 cells (immunoblot); assay type: cell-based; settings: enzyme 200 nM 30 min before 50 ng/ml FGF2
Experimental: a. Methods: B16BL6 cells in 10 cm culture dishes were serum starved for 48 hours before stimulation with 50 ng/ml FGF2. Cells were stimulated for 20 minutes before whole cell lysates were prepared with 1 ml modified RIPA buffer containing various enzyme inhibitors (50 mM Tris-HCl, pH 7.4, 1% NP-40, 0.25% Na-deoxycholate, 150 mM NaCl, 1 mM EDTA, 1 mM PMSF, 1 μg/ml aprotinin, leupeptin, and pepstatin, 1 mM activated Na3VO4, 1 mM NaF). Protein concentration in the lysate was determined using the Bio-Rad protein assay kit (BioRad) and adjusted accordingly for electrophoresis analysis. For the heparinase treated groups, cells were treated with either hep I or hep III (200 nM) for 30 min at 37° C. prior to addition of FGF2. The immunoblot was probed with anti-Erk-1, 2 or anti-phospho-Erk-1, 2 antibody (New England Biolabs; MA) and detected by anti-rabbit IgG conjugated to HRP using SuperSignal West Pico Chemiluminescent substrate (Pierce, Ill.).

B16BL6 melanoma [1] = experiment: Primary tumor growth of B16BL6 melanoma in mice treated with heparinases; assay type: in vivo; settings: 0.5 mg/kg/day
Excerpt: Heparinases I and III, which have very distinct substrate specificities for cleaving HLGAGs, were employed as tools to investigate the role of HLGAGs in tumor growth and metastasis. While heparinase I cleaves at the highly sulfated regions of HLGAGs, heparinase III only cleaves at the under-sulfated regions of the polysaccharide chain, thereby rendering these enzymes powerful tools to investigate in vivo and in vitro roles of HLGAGs, in development, morphogenesis, angiogenesis etc. To examine the roles of HLGAGs in tumor growth and metastasis, we used B16BL6 melanoma as a model system and treated tumor-bearing mice with either heparinases I or III to investigate both primary tumor growth as well as tumor metastasis. Consistent with the current paradigm, heparinase I accelerated tumor growth (FIG. 8). At a dosage of 0.5 mg/kg/day of heparinase I, tumor growth was increased by about 39%. […] Inhibition of primary tumor growth by heparinase III was first observed at 2 mg/kg per day. Tumor growth was inhibited by 73% at 12 mg/kg per day, the maximum dosage tested in the study (FIG. 8).
Mice, 15 days after tumor implantation with B16BL6 melanoma, were examined. 4×10^5 log growth phase B16BL6 melanoma cells in 0.1 ml PBS were injected to the flank of C57BL/6 mice on day 1. Daily injection of 0.1 ml of PBS, heat inactivated hep III or active heparinase III (2 mg/ml, recombinantly expressed, purified, buffer exchanged with PBS, and concentrated) started at the day 4 and continued throughout the experiment. At day 7, osmotic pumps (100 μl capacity delivering at 0.5 μl per hour) containing PBS or 3 mg/ml hep III were implanted subcutaneously at a place remote from the tumor site. Mice were sacrificed at day 15.
FIG. 8 depicts the tumor volume of the tumors isolated from the mice described above. Tumor volume was measured daily after day 7 with a caliper and calculated with the formula [volume=0.52×(width)^2×(length)].

B16BL6 melanoma [2] = experiment: Histological examination of tumor samples (apoptosis, TdT labeling); assay type: in vivo, mice
Experimental: Immunohistochemistry was done as described (Parangi et al., 1996; O'Reilly et al., 1994) with minor modifications. Briefly, tumor tissues were fixed in either 4% (vol/vol) formaldehyde overnight for von Willebrand factor (vWF) staining and terminal deoxynucleotide transferase (TdT) labeling or in Glyo-Fixx solution overnight for Ki-67 nuclear antigen staining. Tissues were embedded in paraffin according to standard histological procedures. For vWF staining, sections (5 μm thick) were incubated with 0.2 N HCl for 10 min. autoclaved in a Coplin jar immersed with Target retrieval Solution (Dako) for 15 min. and permeabilized with 2 μg/ml proteinase K at 37° C. for 15 min. Sections were incubated with rabbit anti-human vWF antibody coupled with horseradish peroxidase (HRP) (Dako). Positive staining was detected by substrate reaction with diaminobenzidine. Sections were counterstained with Gill's hematoxylin and mounted in Permount (Fisher). […] Capillary density was determined by counting the number of vWF-positive capillaries per high power field (HPF, ×200). The proliferative and apoptotic indices of tumor cells within areas of viable tumor were estimated from the percentage of cells scored under a light microscope at 400-fold magnification. A minimum of 2000 cells were counted in each animal. # indicates standard error.

B16BL6 melanoma cells = experiment: Lung metastasis of heparinase treated B16BL6 cells after tail vein injection; assay type: in vivo, mice; settings: cells treated 30 min at 37° C. before tail vein injection; 13 days
Experimental: We next investigated the ability of heparinase treated B16BL6 melanoma cells to metastasize to the lungs. B16BL6 cells in log growth phase were briefly trypsinized and resuspended in PBS to a final concentration of 1×10^6 per ml. Prior to injection, cells were treated with either PBS, hep I […] or hep III […] for 30 min. at 37° C. 0.2 ml cell suspensions (2×10^5 cells) were injected slowly via tail vein. Mice were sacrificed 13 days later and lungs were harvested, rinsed with tap water. The number of nodules on lung surface were counted with the assistance of a dissection microscope. * indicates p<0.05 (Mann-Whitney test).

B1: heparinase I: HLGAG degrading enzyme that cleaves at the highly sulfated regions of HLGAGs (protein, UniProt Q05819 22-384, looked up)
Heparin lyase I: QQKKSGNIPYRVNVQADSAKQKAIIDNKWVAVGINKPYALQYDDKLRFNGKPSYRFELKAEDNSLEGYAAGETKGRTELSYSYATTNDFKKFPPSVYQNAQKLKTVYHYGKGICEQGSSRSYTFSVYIPSSFPDNATTIFAQWHGAPSRTLVATPEGEIKTLSIEEFLALYDRMIFKKNIAHDKVEKKDKDGKITYVAGKPNGWKVEQGGYPTLAFGFSKGYFYIKANSDRQWLTDKADRNNANPENSEVMKPYSSEYKTSTIAYKMPFAQFPKDCWITFDVAIDWTKYGKEANTILKPGKLDVMMTYTKNKKPQKAHIVNQQEILIGRNDDDGYYFKFGIYRVGNSTVPVTYNLSGYSETAR
ability of treated B16BL6 cells to grow in mice compared to untreated cells (B16BL6 cells): no effect
phosphorylation of FGFR1 in primary tumor (FGFR1): opposite effect on the phosphorylation of FGFR1
activation of Akt in tumor (Akt): no change in activation of Akt
Erk-1, 2 activation upon FGF2 stimulation (Erk-1, 2): increased Erk-1, 2 activation
increase of tumor growth (B16BL6 melanoma [1]): about 39%
apoptosis in tumor samples, enzyme treated tumors (B16BL6 melanoma [2]): reduced apoptosis
ability of treated B16BL6 cells to metastasize to the lungs compared to PBS treated cells (B16BL6 melanoma cells): marginally effected, if any
